Results published in patent publication US20250049970A1, “DLL3 TARGETING PEPTIDES AND CONSTRUCTS THEREOF” (MARIANA ONCOLOGY INC., priority 2023, published 2025).
Where “and” joins values, the source holds several entries; their conditions need not be identical. Equal values may be shown once. *1 amine or outer side, *2 acyl side, *3 side chain or, on linkers, in order; H or OH if unused. Bridges are numbered along the chain shown (N, C = ends). Side-chain parts run from the residue outwards. [ ]: non-standard residue; d: D form. The star is where a group is joined. PipA(acetate-DOTA) = (3-(4-piperidinyl)-Ala)-(1,4,7,10-tetraazacyclododecane-1,4,7-triyl)triacetic acid, O=C(O)CN1CCN(CC(=O)O)CCN(CC(=O)N2CCC(C[C@H](N[*:1])C(=O)[*:2])CC2)CCN(CC(=O)O)CC1; PipA(Peg) = 3-(4-piperidinyl)-Ala-(3-hydroxypropanoic acid), O=C(CCO[*:3])N1CCC(C[C@H](N[*:1])C(=O)[*:2])CC1; Ala(1-CH2CO2H-4-piperidyl) = N[C@@H](CC1CCN(CC(=O)O)CC1)C(=O)O; Ala(piperidin-4-yl) = O=C([C@H](CC1CCN([*:3])CC1)N[*:1])[*:2]; DOTA = O=C(O)CN1CCN(CC(=O)O)CCN(CC(=O)*)CCN(CC(=O)O)CC1; PEG8 = NCCOCCOCCOCCOCCOCCOCCOCCOCCC(=O)O; 2Nal = N[C@@H](Cc1ccc2ccccc2c1)C(=O)O; NMetBuAla = CN[C@@H](CC(C)(C)C)C(=O)O; Gly(4-THP) = N[C@H](C(=O)O)C1CCOCC1; Ile(3-Me) = CCC(C)(C)[C@H](N)C(=O)O; aIle = CC[C@@H](C)[C@H](N)C(=O)O; tBuAla = CC(C)(C)C[C@H](N)C(=O)O; Cha = N[C@@H](CC1CCCCC1)C(=O)O; Chg = N[C@H](C(=O)O)C1CCCCC1; NMeNle = CCCC[C@H](NC)C(=O)O; Tle = CC(C)(C)[C@H](N)C(=O)O; plPh = not defined here; CH2 = C([*:1])[*:2]

Legend:
DLL3 on SHP-77 cells [1] = target: T1, DLL3 on SHP-77 cells (human, UniProt Q9NYJ7 27-618); assay: [177Lu]Lu-labelled peptide on SHP-77 cells, 1 h 37 C, gamma counter; C = %>50
T1 construct: SHP-77 cells are human-derived, non-engineered SCLC cells
T1 sequence: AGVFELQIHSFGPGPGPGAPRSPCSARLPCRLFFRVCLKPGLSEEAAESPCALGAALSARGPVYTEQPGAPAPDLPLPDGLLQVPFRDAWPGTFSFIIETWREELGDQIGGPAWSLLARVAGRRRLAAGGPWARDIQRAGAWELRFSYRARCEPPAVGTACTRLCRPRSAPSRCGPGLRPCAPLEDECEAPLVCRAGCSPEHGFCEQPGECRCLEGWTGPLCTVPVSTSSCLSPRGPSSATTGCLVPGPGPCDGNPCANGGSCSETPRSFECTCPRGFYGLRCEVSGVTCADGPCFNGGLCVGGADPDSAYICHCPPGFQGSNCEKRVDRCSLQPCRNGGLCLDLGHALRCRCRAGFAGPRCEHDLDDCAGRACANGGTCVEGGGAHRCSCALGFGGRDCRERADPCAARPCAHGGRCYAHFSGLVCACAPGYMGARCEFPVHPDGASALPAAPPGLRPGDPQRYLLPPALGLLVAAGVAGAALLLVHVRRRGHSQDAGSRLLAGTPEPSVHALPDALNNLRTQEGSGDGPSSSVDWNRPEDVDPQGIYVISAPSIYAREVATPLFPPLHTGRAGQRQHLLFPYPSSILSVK

DLL3 on CT26.DLL3 cells = target: T2, DLL3 on CT26.DLL3 cells (Homo sapiens (Human), UniProt Q9NYJ7 27-618); assay: [177Lu]Lu-labelled peptide on CT26.DLL3 cells, 1 h 37 C, gamma counter; A = %<=25
T2 construct: CT26.DLL3 are engineered cells to express DLL3
T2 sequence: T1 sequence
Procedure: (§1) Adherent cell studies: The cells were cultured in appropriate culture media (20 mL) in tissue culture treated T150 flasks at 37° C. and 5% C02. Adherent cells were detached (60-70% confluent) using 5 mL Versene at 37° C. for 3 minutes. After confirming the viability using countess and count of detached cells using Trypan blue, the cells were centrifuged at 4° C. for 5 minutes (1,000 rpm). The cell pellet obtained was washed once with PBS and resuspended in 1% PBSA to obtain the desired cell concentration (5-25 million cells/mL).
(§2) Total uptake: Cells were incubated with 300 μL (0.8 μCi) of the incubation buffer (containing radiolabeled peptide [¹⁷⁷Lu]Lu-test peptide) for 1 hour at 37° C. (Table 10). Post incubation, the cells were pelleted and washed 2 times using cold PBS+1% BSA. The supernatant and washes were combined and counted together as “unbound fraction” in a gamma counter. The cells were then resuspended in 300 μL of 1% PBS+1% BSA and counted in the gamma counter as “bound fraction”.

[2] = target: DLL3 on CT26.DLL3 cells (Homo sapiens (Human)) (UniProt Q9NYJ7); assay: [177Lu]Lu-labelled peptide on CT26.DLL3 cells, 1 h 37 C, gamma counter; B = 25<%<=50
DLL3 on SHP-77 cells [3] = target: T1, DLL3 on SHP-77 cells; assay: [177Lu]Lu-labelled peptide on SHP-77 cells, 1 h 37 C, gamma counter; B = 25<%<=50
DLL3 on SHP-77 cells [4] = target: T1, DLL3 on SHP-77 cells; assay: [177Lu]Lu-labelled peptide on SHP-77 cells, 1 h 37 C, gamma counter; A = %<=25
Procedure: as §1, §2

Ac-WT[NMetBuAla]C[Ala(piperidin-4-yl)]N[2Nal]K(DOTA)DCWP[dK]-NH2 (bridge 4-10; not fully specified (residue 13)) [Cpd No. 445]
% Binding (DLL3 on SHP-77 cells [1]): > 50%

Ac-WT[Chg]CNN[2Nal]K(DOTA)DCWP-NH2 (disulfide 4-10) [Cpd No. 318]
% Binding (DLL3 on CT26.DLL3 cells): ≤ 25%

Ac-WT[Tle]C[Ala(piperidin-4-yl)]N[2Nal]K(DOTA)DCWP-NH2 (disulfide 4-10) [Cpd No. 301]
% Binding [2]: > 25% and < 50%

B1: Cpd No. 314 (peptide)
peptide: Ac-WT[tBuAla]C[Ala(piperidin-4-yl)]N[2Nal]K(DOTA)DCWP-NH2
modifications: disulfide 4-10
SMILES: CC(=O)N[C@@H](Cc1c[nH]c2ccccc12)C(=O)N[C@H](C(=O)N[C@@H](CC(C)(C)C)C(=O)N[C@H]1CSSC[C@@H](C(=O)N[C@@H](Cc2c[nH]c3ccccc23)C(=O)N2CCC[C@H]2C(N)=O)NC(=O)[C@H](CC(=O)O)NC(=O)[C@H](CCCCNC(=O)CN2CCN(CC(=O)O)CCN(CC(=O)O)CCN(CC(=O)O)CC2)NC(=O)[C@H](Cc2ccc3ccccc3c2)NC(=O)[C@H](CC(N)=O)NC(=O)[C@H](CC2CCNCC2)NC1=O)[C@@H](C)O
% Binding (DLL3 on SHP-77 cells [3]): > 25% and < 50%
% Binding [2]: > 25% and < 50%

B2: Cpd No. 322 (peptide)
peptide: Ac-WT[aIle]CNN[2Nal]K(DOTA)DCWP-NH2
modifications: disulfide 4-10
SMILES: CC[C@@H](C)[C@H](NC(=O)[C@@H](NC(=O)[C@H](Cc1c[nH]c2ccccc12)NC(C)=O)[C@@H](C)O)C(=O)N[C@H]1CSSC[C@@H](C(=O)N[C@@H](Cc2c[nH]c3ccccc23)C(=O)N2CCC[C@H]2C(N)=O)NC(=O)[C@H](CC(=O)O)NC(=O)[C@H](CCCCNC(=O)CN2CCN(CC(=O)O)CCN(CC(=O)O)CCN(CC(=O)O)CC2)NC(=O)[C@H](Cc2ccc3ccccc3c2)NC(=O)[C@H](CC(N)=O)NC(=O)[C@H](CC(N)=O)NC1=O
% Binding (DLL3 on SHP-77 cells [4]): ≤ 25%
% Binding (DLL3 on CT26.DLL3 cells): ≤ 25%

Ac-WT[NMetBuAla]C[Ala(piperidin-4-yl)]N[2Nal]K(DOTA)DCWP-OH (linker 4-10 via CH2) [Cpd No. 442]
% Binding (DLL3 on SHP-77 cells [1]): > 50%

Ac-WT[Ile(3-Me)]CNN[2Nal]K(DOTA)DCWP-NH2 (disulfide 4-10) [Cpd No. 321]
% Binding (DLL3 on CT26.DLL3 cells): ≤ 25%

Ac-WT[NMetBuAla]C[Ala(piperidin-4-yl)]N[2Nal]K(DOTA)DCWP-NH2 (bridge 4-10; not fully specified (bridges)) [Cpd No. 153]
% Binding (DLL3 on SHP-77 cells [1]): > 50%

Ac-WT[tBuAla]CNN[2Nal]K(DOTA)DCWP-NH2 (disulfide 4-10) [Cpd No. 316]
% Binding (DLL3 on CT26.DLL3 cells): ≤ 25%

B3: Cpd No. 323 (peptide)
peptide: Ac-WT[Cha]CNN[2Nal]K(DOTA)DCWP-NH2
modifications: disulfide 4-10
SMILES: CC(=O)N[C@@H](Cc1c[nH]c2ccccc12)C(=O)N[C@H](C(=O)N[C@@H](CC1CCCCC1)C(=O)N[C@H]1CSSC[C@@H](C(=O)N[C@@H](Cc2c[nH]c3ccccc23)C(=O)N2CCC[C@H]2C(N)=O)NC(=O)[C@H](CC(=O)O)NC(=O)[C@H](CCCCNC(=O)CN2CCN(CC(=O)O)CCN(CC(=O)O)CCN(CC(=O)O)CC2)NC(=O)[C@H](Cc2ccc3ccccc3c2)NC(=O)[C@H](CC(N)=O)NC(=O)[C@H](CC(N)=O)NC1=O)[C@@H](C)O
% Binding (DLL3 on SHP-77 cells [4]): ≤ 25%
% Binding (DLL3 on CT26.DLL3 cells): ≤ 25%

Ac-WT[NMetBuAla]C[PipA(Peg)]N[2Nal]K(DOTA)DCWP-NH2 (linker 4-10 via CH2) [Cpd No. 448]
% Binding (DLL3 on SHP-77 cells [1]): > 50%

B4: Cpd No. 249 (peptide)
peptide: Ac-WTICK(DOTA)N[2Nal]HDCWP-NH2
modifications: disulfide 4-10
SMILES: CC[C@H](C)[C@H](NC(=O)[C@@H](NC(=O)[C@H](Cc1c[nH]c2ccccc12)NC(C)=O)[C@@H](C)O)C(=O)N[C@H]1CSSC[C@@H](C(=O)N[C@@H](Cc2c[nH]c3ccccc23)C(=O)N2CCC[C@H]2C(N)=O)NC(=O)[C@H](CC(=O)O)NC(=O)[C@H](Cc2c[nH]cn2)NC(=O)[C@H](Cc2ccc3ccccc3c2)NC(=O)[C@H](CC(N)=O)NC(=O)[C@H](CCCCNC(=O)CN2CCN(CC(=O)O)CCN(CC(=O)O)CCN(CC(=O)O)CC2)NC1=O
notes: also called compound 249
% Binding (DLL3 on SHP-77 cells [4]): ≤ 25%
% Binding (DLL3 on CT26.DLL3 cells): ≤ 25%

B5: Cpd No. 417 (peptide)
peptide: Ac-WT[Chg]C[Ala(piperidin-4-yl)]N[2Nal]K(DOTA)DCWP[dK]([PEG8-plPh])-NH2
modifications: bridge 4-10; not fully specified (bridges); reading uncertain; also: bridge 4-10: thioacetal per mods, disulfide
% Binding [2]: > 25% and < 50%

Ac-WT[NMetBuAla]C[Ala(1-CH2CO2H-4-piperidyl)]N[2Nal]K(DOTA)DCWP-NH2 (linker 4-10 via CH2) [Cpd No. 447]
% Binding (DLL3 on SHP-77 cells [1]): > 50%

Ac-WT[NMeNle]CNN[2Nal]K(DOTA)DCWP-NH2 (disulfide 4-10) [Cpd No. 320]
% Binding (DLL3 on SHP-77 cells [4]): ≤ 25%
% Binding (DLL3 on CT26.DLL3 cells): ≤ 25%

Ac-WT[NMetBuAla]C[PipA(acetate-DOTA)]N[2Nal]K(DOTA)DCWP-NH2 (linker 4-10 via CH2) [Cpd No. 449]
% Binding (DLL3 on SHP-77 cells [1]): > 50%

B6: Cpd No. 317 (peptide)
peptide: Ac-WT[Gly(4-THP)]CNN[2Nal]K(DOTA)DCWP-NH2
modifications: disulfide 4-10
SMILES: CC(=O)N[C@@H](Cc1c[nH]c2ccccc12)C(=O)N[C@H](C(=O)N[C@H](C(=O)N[C@H]1CSSC[C@@H](C(=O)N[C@@H](Cc2c[nH]c3ccccc23)C(=O)N2CCC[C@H]2C(N)=O)NC(=O)[C@H](CC(=O)O)NC(=O)[C@H](CCCCNC(=O)CN2CCN(CC(=O)O)CCN(CC(=O)O)CCN(CC(=O)O)CC2)NC(=O)[C@H](Cc2ccc3ccccc3c2)NC(=O)[C@H](CC(N)=O)NC(=O)[C@H](CC(N)=O)NC1=O)C1CCOCC1)[C@@H](C)O
% Binding (DLL3 on SHP-77 cells [4]): ≤ 25%
% Binding (DLL3 on CT26.DLL3 cells): ≤ 25%

Ac-WT[NMeNle]C[Ala(piperidin-4-yl)]N[2Nal]K(DOTA)DCWP-NH2 (disulfide 4-10) [Cpd No. 300]
% Binding [2]: > 25% and < 50%
